Data from US20240076386A1 (Pfizer, published 2024).

Tests used:
[1] = target: T1, recombinant histidine-tagged cynomolgus monkey E-selectin (Sino Biologicals; 190169-C08H) (cynomolgus monkey, UniProt A0A2K5U7H9 22-554); assay: direct binding ELISA, further assay
T1 construct: also called recombinant cynomolgus monkey E-selectin
T1 sequence: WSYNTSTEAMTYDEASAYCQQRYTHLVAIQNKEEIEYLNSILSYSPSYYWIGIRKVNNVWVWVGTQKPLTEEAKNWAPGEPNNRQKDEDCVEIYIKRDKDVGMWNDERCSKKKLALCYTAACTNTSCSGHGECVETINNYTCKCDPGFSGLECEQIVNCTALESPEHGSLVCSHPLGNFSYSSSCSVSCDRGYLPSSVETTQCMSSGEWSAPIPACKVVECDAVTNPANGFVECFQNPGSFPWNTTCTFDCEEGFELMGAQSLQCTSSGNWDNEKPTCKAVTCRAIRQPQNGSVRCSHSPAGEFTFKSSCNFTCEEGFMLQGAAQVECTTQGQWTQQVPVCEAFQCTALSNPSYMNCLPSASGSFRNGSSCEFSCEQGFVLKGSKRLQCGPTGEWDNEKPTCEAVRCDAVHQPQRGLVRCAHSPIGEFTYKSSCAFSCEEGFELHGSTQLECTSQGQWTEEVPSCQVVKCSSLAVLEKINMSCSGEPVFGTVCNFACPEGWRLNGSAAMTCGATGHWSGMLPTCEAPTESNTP
Description: (§1) Recombinant histidine tagged human P-, E- or L-selectin (Sino Biologicals), mouse E-selectin (Sino Biologicals), rat E-selectin (Sino Biologicals) and Cynomolgus monkey E-selectin (Sino Biologicals) stock solutions were prepared to a final concentration of 1 μg/mL in phosphate buffered saline without calcium and magnesium. Controls included an L-selectin directed antibody (BioLegend; 304811) or P-selectin directed antibody or a negative control IgG. One hundred μL per well of the diluted recombinant selectin proteins were added into a Ni-NTA HisSorb 96 well plate (Qiagen; 35061). Plates were incubated on an orbital shaker at room temperature for 2 hours. Following the incubation, the plates were washed 3 times with 200 μL of wash buffer (50 mM TRIS [trisaminomethane]; 150 mM sodium chloride; 0.05% polysorbate 20, pH 7.4). […] Anti L-selectin and anti-rat-E-selectin antibodies were detected using 1 to 25000 dilution of Peroxidase-conjugated AffiniPure Goat Anti-Mouse IgG (H+L); (Jackson ImnnunoResearch Lab).
(§2) Plates were washed and 100 μL per well of 1-Step Ultra TMB substrate (Thermo Scientific) was added and incubated for 5 minutes at room temperature. Reactions were stopped with 100 μL of 2 M sulfuric acid and absorbance read at 450 nm (Spectramax M5e).

[2] = target: T2, recombinant histidine-tagged human E-selectin (Sino Biologicals; 13025-H08H) (human, UniProt P16581 22-556); assay: direct binding ELISA, soluble recombinant protein
T2 construct: also called recombinant human E-selectin; soluble recombinant human E-selectin
T2 sequence (looked up): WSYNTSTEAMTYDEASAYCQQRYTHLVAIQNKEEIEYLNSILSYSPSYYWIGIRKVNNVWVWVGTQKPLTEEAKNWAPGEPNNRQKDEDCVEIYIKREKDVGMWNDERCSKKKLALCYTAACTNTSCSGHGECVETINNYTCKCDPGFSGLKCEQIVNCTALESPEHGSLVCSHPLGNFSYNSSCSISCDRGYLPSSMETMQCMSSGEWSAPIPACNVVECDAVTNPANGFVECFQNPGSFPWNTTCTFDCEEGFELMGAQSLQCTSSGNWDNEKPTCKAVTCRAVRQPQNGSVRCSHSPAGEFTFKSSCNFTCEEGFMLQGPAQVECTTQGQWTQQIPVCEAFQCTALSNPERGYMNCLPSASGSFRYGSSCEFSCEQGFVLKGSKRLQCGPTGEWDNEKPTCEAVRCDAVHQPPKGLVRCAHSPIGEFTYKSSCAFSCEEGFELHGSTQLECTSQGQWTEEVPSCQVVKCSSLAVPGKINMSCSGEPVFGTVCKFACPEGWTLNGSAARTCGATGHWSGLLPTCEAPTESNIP
Description: as §1, §2

[3] = target: T1, recombinant histidine-tagged cynomolgus …; assay: direct binding ELISA, soluble recombinant protein
Description: as §1, §2

[4] = target: T2, recombinant histidine-tagged human …; assay: cell-based or functional assay
[5] = target: T3, human P-selectin expressed on CHO cells (human, UniProt P16109 42-830); assay: flow cytometry, CHO human P-selectin cells
T3 construct: whole, on cells; also called CHO-human P-selectin cells; CHO-P-selectin cells
T3 sequence (looked up): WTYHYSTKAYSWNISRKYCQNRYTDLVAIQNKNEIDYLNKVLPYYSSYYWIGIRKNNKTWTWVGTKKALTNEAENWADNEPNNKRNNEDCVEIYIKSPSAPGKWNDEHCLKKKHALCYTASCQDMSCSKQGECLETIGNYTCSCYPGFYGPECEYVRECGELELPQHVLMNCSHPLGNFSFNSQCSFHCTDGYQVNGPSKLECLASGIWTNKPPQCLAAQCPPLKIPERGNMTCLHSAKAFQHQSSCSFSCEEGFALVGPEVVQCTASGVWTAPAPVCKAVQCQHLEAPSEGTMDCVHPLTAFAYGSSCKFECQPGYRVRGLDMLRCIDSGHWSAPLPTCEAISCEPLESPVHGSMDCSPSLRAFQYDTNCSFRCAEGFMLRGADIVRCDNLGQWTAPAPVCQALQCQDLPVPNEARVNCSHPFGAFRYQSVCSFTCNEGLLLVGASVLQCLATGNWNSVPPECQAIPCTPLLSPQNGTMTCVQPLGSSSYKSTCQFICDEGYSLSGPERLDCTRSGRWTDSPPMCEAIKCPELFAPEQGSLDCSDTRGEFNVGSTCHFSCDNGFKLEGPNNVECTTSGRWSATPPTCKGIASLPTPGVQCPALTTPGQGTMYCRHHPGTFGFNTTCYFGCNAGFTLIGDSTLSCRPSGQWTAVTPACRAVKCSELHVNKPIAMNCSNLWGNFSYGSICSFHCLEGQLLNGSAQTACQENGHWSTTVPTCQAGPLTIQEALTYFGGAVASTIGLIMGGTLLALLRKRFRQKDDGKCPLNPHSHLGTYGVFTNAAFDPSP

B1: optimized anti-E-selectin antibody 1444 (antibody, human IgG1, kappa, V domains shown)
VH: EVQLVESGGGLVQPGGSLRLSCAASGYAIRSAYMHWVRQAPGKGLEWVARIDPANGNTIYVDSVTGRFTISADNAKNSAYLQMNSLRAEDTAVYYCAMDLYSTSEYWGQGTLVTVSS
VL: DIQMTQSPSSLSASVGDRVTITCKTSQNIERYLNWYQQKPGKAPKLLIYAASSLQSGVPSRFSGSGSGTDFTLTISSLQPEDFATYFCLQDNAWPLTFGQGTKVEIKR
notes: effector-null human IgG1, kappa
**Q.** B1 was tested. Which EC50 [1] did it give?
**A.** 0.071 to 0.075 nM

**Q.** What about the EC50 [2] of the same binder?
**A.** 0.085 to 0.12 nM

**Q.** What about the EC50 [3] of the same binder?
**A.** 0.071 to 0.093 nM

**Q.** And the “Flow adhesion neutralization of HL-60 cells, soluble recombinant human E-selectin, IC50” value [4]?
**A.** 13.3 to 15.9 nM

**Q.** What about the “Neutralization of SCD patient cells, soluble human recombinant protein, flow, IC50 (mean)” value [4] of the same binder?
**A.** 12.4 nM

**Q.** Does B1 bind [5]?
**A.** no binding
